Data set [1] concerns the target SARS-CoV-2 E protein transmembrane domain E_(12–37) (SARS-CoV-2 (isolate Wuhan-Hu-1)). Put plainly: SDS-PAGE.
Data set [2] concerns the molecule itself. Put plainly: SDS-PAGE.

Consider two molecules from publication PMC10620413, “Dimeric Transmembrane Structure of the SARS-CoV-2 E Protein” (Communications Biology, 2023).

As usually defined, the stoichiometry N is the number of molecules, sites or subunits per partner or assembly.

“SARS-CoV-2 E protein transmembrane domain E_(12–37) (domain or fragment)”: in data set [1], the stoichiometry N was 2.

With SNAETGTLIVNSVLLFLAFVVFLLVTLAILTALRLSA (domain or fragment, not shown: MBP, N-terminal, cleaved) [SARS-CoV-2 E protein fragment E_(8–41)], the “stoichiometry N” value in data set [2] is 2.
